In the assay the target is vascular endothelial growth factor receptor-1 (VEGFR-1) (human) (UniProt P17948). Briefly: cell-based or functional assay.
UniProt P17948, sequence (P17948 27-1338): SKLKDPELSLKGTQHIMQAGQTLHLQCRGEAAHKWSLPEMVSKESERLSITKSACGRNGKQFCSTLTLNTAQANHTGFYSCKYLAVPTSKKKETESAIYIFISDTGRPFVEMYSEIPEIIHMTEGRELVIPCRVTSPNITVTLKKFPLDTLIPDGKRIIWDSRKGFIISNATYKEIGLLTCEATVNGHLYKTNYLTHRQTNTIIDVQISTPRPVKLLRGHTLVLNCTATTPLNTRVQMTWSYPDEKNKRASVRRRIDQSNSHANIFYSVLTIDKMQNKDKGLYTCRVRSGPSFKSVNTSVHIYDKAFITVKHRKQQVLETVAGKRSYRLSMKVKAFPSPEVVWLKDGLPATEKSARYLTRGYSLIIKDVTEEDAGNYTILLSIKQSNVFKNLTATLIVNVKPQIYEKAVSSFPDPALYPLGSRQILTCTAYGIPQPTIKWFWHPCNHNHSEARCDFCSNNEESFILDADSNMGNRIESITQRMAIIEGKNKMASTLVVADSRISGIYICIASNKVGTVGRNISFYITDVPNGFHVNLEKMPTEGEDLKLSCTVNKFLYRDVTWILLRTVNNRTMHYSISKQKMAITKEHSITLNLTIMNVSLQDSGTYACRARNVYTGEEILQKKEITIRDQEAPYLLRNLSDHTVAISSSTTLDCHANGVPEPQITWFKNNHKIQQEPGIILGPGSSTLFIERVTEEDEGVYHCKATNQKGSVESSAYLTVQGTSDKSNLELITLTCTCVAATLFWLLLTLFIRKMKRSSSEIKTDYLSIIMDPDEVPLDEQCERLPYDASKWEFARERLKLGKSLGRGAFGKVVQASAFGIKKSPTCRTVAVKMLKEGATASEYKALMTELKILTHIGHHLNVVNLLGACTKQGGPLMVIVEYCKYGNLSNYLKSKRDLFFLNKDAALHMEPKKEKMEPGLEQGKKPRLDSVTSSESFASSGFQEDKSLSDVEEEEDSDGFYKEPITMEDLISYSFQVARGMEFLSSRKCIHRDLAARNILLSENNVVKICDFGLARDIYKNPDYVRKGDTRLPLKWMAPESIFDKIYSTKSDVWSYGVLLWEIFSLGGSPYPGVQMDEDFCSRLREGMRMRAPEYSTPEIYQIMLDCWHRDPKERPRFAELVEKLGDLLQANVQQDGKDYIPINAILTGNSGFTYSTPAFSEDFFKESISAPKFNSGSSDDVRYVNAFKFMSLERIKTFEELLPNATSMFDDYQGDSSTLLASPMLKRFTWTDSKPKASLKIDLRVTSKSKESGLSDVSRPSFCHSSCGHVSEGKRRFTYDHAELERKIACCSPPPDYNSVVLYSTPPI

The substance isotype control mAb (antibody) came in with a VEGF-induced CD144 expression (% of cells), isotype control mAb-treated human melanoma cells of 57%; a VEGF-induced tube formation, average tube length, isotype control mAb-treated of 86.5 µm; a VEGF-induced tube formation, numbers of tubes formed/microscopy field, isotype control mAb-treated (tubes/microscopy field) of 76.7.

“vascular endothelial growth factor (VEGF) (from UniProt P15692 27-191) (ligand)” gave a VEGF-induced CD144 expression (% of cells), untreated human melanoma cells of 64%; a VEGF-induced tube formation, average tube length, untreated of 92.1 µm; a VEGF-induced tube formation, numbers of tubes formed/microscopy field, untreated (tubes/microscopy field) of 99.

The record behind these values is US20160009804A1.
